{
  "source": "paper PMC4434323",
  "data": [
    {"biological_target": "T1, daf-12 (F11A1.3) (Caenorhabditis elegans) (UniProt G5EFF5)", "T1 sequence": "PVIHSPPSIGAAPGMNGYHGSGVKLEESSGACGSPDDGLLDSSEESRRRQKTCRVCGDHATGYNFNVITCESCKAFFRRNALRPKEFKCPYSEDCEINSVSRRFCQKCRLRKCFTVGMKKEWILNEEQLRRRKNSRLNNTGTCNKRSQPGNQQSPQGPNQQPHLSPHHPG", "values": [
      {"sequence": "AAGTGCAT (double strand) [8-mer AAGTGCAT]", "binding signal (PBM E-score (-0.5 to 0.5))": 0.495},
      {"sequence": "AAGTGCAG (double strand) [8-mer AAGTGCAG]", "binding signal (PBM E-score (-0.5 to 0.5))": 0.492},
      {"sequence": "AAAGTGCA (double strand) [8-mer AAAGTGCA]", "binding signal (PBM E-score (-0.5 to 0.5))": 0.498},
      {"sequence": "TAAGTGCA (double strand) [8-mer TAAGTGCA]", "binding signal (PBM E-score (-0.5 to 0.5))": 0.496},
      {"sequence": "TAAGTACA (double strand) [8-mer TAAGTACA]", "binding signal (PBM E-score (-0.5 to 0.5))": 0.492},
      {"sequence": "AAGTACAA (double strand) [8-mer AAGTACAA]", "binding signal (PBM E-score (-0.5 to 0.5))": 0.493},
      {"sequence": "AAGTGCAA (double strand) [8-mer AAGTGCAA]", "binding signal (PBM E-score (-0.5 to 0.5))": 0.496},
      {"sequence": "CAAGTGCA (double strand) [8-mer CAAGTGCA]", "binding signal (PBM E-score (-0.5 to 0.5))": 0.493},
      {"sequence": "AAGTACAT (double strand) [8-mer AAGTACAT]", "binding signal (PBM E-score (-0.5 to 0.5))": 0.495}
    ]},
    {"biological_target": "T2, nhr-142 (F44E7.8) (Caenorhabditis elegans) (UniProt J7SF93)", "T2 sequence": "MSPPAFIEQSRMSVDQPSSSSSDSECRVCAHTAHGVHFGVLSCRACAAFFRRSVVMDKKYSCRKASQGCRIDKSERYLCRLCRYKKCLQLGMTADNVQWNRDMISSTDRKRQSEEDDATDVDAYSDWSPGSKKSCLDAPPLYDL", "values": [
      {"sequence": "GTCATAAA (double strand) [8-mer GTCATAAA]", "binding signal (PBM E-score (-0.5 to 0.5))": 0.484},
      {"sequence": "GAGTCACA (double strand) [8-mer GAGTCACA]", "binding signal (PBM E-score (-0.5 to 0.5))": 0.485},
      {"sequence": "CAGTCACA (double strand) [8-mer CAGTCACA]", "binding signal (PBM E-score (-0.5 to 0.5))": 0.483}
    ]},
    {"biological_target": "nhr-34 (F58G6.5) (Caenorhabditis elegans) (UniProt Q21006)", "sequence (Q21006 99-268)": "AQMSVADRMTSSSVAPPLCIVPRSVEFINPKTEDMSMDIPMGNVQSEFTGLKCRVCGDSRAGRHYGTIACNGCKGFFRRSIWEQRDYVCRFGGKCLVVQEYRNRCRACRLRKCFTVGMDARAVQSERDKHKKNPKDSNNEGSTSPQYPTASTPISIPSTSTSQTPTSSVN", "values": [
      {"sequence": "GGAGATCA (double strand) [8-mer GGAGATCA]", "binding signal (PBM E-score (-0.5 to 0.5))": 0.473},
      {"sequence": "GAGACCAA (double strand) [8-mer GAGACCAA]", "binding signal (PBM E-score (-0.5 to 0.5))": 0.475},
      {"sequence": "GAGTTCAA (double strand) [8-mer GAGTTCAA]", "binding signal (PBM E-score (-0.5 to 0.5))": 0.471},
      {"sequence": "CAAGATCA (double strand) [8-mer CAAGATCA]", "binding signal (PBM E-score (-0.5 to 0.5))": 0.474},
      {"sequence": "CGAGATCA (double strand) [8-mer CGAGATCA]", "binding signal (PBM E-score (-0.5 to 0.5))": 0.472}
    ]},
    {"biological_target": "T3, nhr-42 (C33G8.6) (Caenorhabditis elegans) (UniProt O76828)", "T3 sequence": "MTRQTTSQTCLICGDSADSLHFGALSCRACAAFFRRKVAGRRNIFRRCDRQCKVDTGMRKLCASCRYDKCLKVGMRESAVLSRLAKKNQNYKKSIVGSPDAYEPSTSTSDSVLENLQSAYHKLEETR", "values": [
      {"sequence": "AGACTACG (double strand) [8-mer AGACTACG]", "binding signal (PBM E-score (-0.5 to 0.5))": 0.492},
      {"sequence": "CGTAGTCA (double strand) [8-mer CGTAGTCA]", "binding signal (PBM E-score (-0.5 to 0.5))": 0.48},
      {"sequence": "GACTACGC (double strand) [8-mer GACTACGC]", "binding signal (PBM E-score (-0.5 to 0.5))": 0.484},
      {"sequence": "ACTACGAA (double strand) [8-mer ACTACGAA]", "binding signal (PBM E-score (-0.5 to 0.5))": 0.486},
      {"sequence": "ACACTACG (double strand) [8-mer ACACTACG]", "binding signal (PBM E-score (-0.5 to 0.5))": 0.493},
      {"sequence": "GACTACGA (double strand) [8-mer GACTACGA]", "binding signal (PBM E-score (-0.5 to 0.5))": 0.487},
      {"sequence": "AGTCACAT (double strand) [8-mer AGTCACAT]", "binding signal (PBM E-score (-0.5 to 0.5))": 0.481},
      {"sequence": "ACTACGAT (double strand) [8-mer ACTACGAT]", "binding signal (PBM E-score (-0.5 to 0.5))": 0.482},
      {"sequence": "CACTACGA (double strand) [8-mer CACTACGA]", "binding signal (PBM E-score (-0.5 to 0.5))": 0.485}
    ]},
    {"biological_target": "T4, nhr-46 (C45E5.6) (Caenorhabditis elegans) (UniProt Q95QR2)", "T4 sequence": "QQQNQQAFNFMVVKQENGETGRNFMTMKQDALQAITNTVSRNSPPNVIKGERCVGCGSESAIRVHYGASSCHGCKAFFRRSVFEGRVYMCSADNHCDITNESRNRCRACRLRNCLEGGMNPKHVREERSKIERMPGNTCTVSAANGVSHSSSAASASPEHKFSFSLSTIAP", "values": [
      {"sequence": "ATGATCTC (double strand) [8-mer ATGATCTC]", "binding signal (PBM E-score (-0.5 to 0.5))": 0.46},
      {"sequence": "AAGATCAT (double strand) [8-mer AAGATCAT]", "binding signal (PBM E-score (-0.5 to 0.5))": 0.476},
      {"sequence": "AGATCAAG (double strand) [8-mer AGATCAAG]", "binding signal (PBM E-score (-0.5 to 0.5))": 0.466},
      {"sequence": "AGATCAAA (double strand) [8-mer AGATCAAA]", "binding signal (PBM E-score (-0.5 to 0.5))": 0.473},
      {"sequence": "TAGATCAA (double strand) [8-mer TAGATCAA]", "binding signal (PBM E-score (-0.5 to 0.5))": 0.465},
      {"sequence": "CAAGATCA (double strand) [8-mer CAAGATCA]", "binding signal (PBM E-score (-0.5 to 0.5))": 0.463},
      {"sequence": "CGAGATCA (double strand) [8-mer CGAGATCA]", "binding signal (PBM E-score (-0.5 to 0.5))": 0.46}
    ]},
    {"biological_target": "T5, unc-120 (D1081.2) (Caenorhabditis elegans) (UniProt Q18955)", "T5 sequence": "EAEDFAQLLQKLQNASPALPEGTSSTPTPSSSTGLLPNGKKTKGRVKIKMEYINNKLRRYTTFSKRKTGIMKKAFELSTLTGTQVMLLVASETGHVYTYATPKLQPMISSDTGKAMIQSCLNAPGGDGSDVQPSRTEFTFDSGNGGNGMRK", "values": [
      {"sequence": "TACCATAA (double strand) [8-mer TACCATAA]", "binding signal (PBM E-score (-0.5 to 0.5))": 0.462},
      {"sequence": "TATATGGA (double strand) [8-mer TATATGGA]", "binding signal (PBM E-score (-0.5 to 0.5))": 0.478},
      {"sequence": "TATAAGGA (double strand) [8-mer TATAAGGA]", "binding signal (PBM E-score (-0.5 to 0.5))": 0.472},
      {"sequence": "CATATAAG (double strand) [8-mer CATATAAG]", "binding signal (PBM E-score (-0.5 to 0.5))": 0.466},
      {"sequence": "ATATATGG (double strand) [8-mer ATATATGG]", "binding signal (PBM E-score (-0.5 to 0.5))": 0.486},
      {"sequence": "AAATATGG (double strand) [8-mer AAATATGG]", "binding signal (PBM E-score (-0.5 to 0.5))": 0.474},
      {"sequence": "ACCTTATA (double strand) [8-mer ACCTTATA]", "binding signal (PBM E-score (-0.5 to 0.5))": 0.466},
      {"sequence": "CATATATG (double strand) [8-mer CATATATG]", "binding signal (PBM E-score (-0.5 to 0.5))": 0.468}
    ]}
  ]
}
